Experimental data reported in patent publication US20230266317A1 (published 2023).

Experiments:
Assay in all cases: cell-based or functional assay
[1] = target: T1, UspA2 of M. catarrhalis Dutch isolate F10, on bacteria (Moraxella catarrhalis)
T1 chain: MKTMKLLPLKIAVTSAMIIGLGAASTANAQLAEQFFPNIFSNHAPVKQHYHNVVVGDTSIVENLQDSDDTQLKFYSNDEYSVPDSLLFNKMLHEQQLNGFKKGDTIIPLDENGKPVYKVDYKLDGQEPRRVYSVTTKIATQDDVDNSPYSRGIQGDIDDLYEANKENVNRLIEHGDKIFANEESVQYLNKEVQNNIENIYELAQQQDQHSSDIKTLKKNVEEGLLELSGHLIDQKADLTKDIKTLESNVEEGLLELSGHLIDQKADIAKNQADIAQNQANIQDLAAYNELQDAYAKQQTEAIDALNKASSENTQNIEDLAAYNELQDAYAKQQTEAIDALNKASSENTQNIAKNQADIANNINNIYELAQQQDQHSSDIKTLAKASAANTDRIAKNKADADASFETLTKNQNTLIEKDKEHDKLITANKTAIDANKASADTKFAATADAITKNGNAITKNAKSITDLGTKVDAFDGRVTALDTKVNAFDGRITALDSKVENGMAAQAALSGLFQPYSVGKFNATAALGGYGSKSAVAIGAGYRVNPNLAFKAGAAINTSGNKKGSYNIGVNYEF

[2] = target: UspA2H of M. catarrhalis AERIS isolate 240, on bacteria (Moraxella catarrhalis)
[3] = target: UspA2H of M. catarrhalis AERIS isolate 296, on bacteria (Moraxella catarrhalis)
[4] = target: UspA1 of M. catarrhalis strain ATCC 43617, on bacteria (Moraxella catarrhalis)
[5] = target: UspA2H of M. catarrhalis AERIS isolate 268, on bacteria (Moraxella catarrhalis)
[6] = target: UspA2 of M. catarrhalis Denmark isolate BBH18 (wild type), on bacteria (Moraxella catarrhalis)
[7] = target: UspA2H of M. catarrhalis AERIS isolate 415, on bacteria (Moraxella catarrhalis)
[8] = target: T2, UspA2 of M. catarrhalis strain ATCC 25238 (SEQ ID NO: 1), on bacteria (Moraxella catarrhalis)
T2 chain: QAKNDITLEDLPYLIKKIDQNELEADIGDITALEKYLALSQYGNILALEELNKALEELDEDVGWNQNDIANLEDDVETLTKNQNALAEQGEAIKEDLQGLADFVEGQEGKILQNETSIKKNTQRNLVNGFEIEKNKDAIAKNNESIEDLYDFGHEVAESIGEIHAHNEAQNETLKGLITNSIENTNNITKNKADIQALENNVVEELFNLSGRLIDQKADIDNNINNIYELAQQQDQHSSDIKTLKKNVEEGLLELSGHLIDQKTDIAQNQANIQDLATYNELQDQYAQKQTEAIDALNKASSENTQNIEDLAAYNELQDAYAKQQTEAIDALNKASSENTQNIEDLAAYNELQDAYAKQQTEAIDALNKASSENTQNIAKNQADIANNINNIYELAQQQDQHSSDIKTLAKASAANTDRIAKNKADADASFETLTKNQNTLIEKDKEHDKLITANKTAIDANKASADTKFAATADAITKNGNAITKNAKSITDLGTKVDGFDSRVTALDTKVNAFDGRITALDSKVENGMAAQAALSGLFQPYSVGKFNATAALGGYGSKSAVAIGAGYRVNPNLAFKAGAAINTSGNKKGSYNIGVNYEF

[9] = target: UspA2H of M. catarrhalis AERIS isolate 193, on bacteria (Moraxella catarrhalis)

B1: anti-UspA2 monoclonal antibody FHUSPA2/10 (antibody, V domains shown)
VH: EVQLQQSGTVLARPGASVKMSCKASGYSFTSYWMHWVKQRPGQGLEWIGAIYPGNSDTSYNQKFKGKAKLTAVTSASTAYMELSNLTNEDSAVYSCTLLRFLDAYWGQGTLVTVSA
VL: QIVLSQSPAILSASPGEKVTMTCRASSSVSYMHWYQQKPGSSPKPWIYATSNLASGVPARFSGSGSGTSYSLTISRVEAEDAATYYCQQWSSNPPTFGGGSKLEIK
- bactericidal activity (mid-point titer) [1]: 528000 mid-point titer (reciprocal dilution inducing 50% of killing)
- bactericidal activity (mid-point titer) [2]: > 25600 mid-point titer (reciprocal dilution inducing 50% of killing)
- bactericidal activity (mid-point titer) [3]: 114000 mid-point titer (reciprocal dilution inducing 50% of killing)
- bactericidal activity (mid-point titer) [4]: < 100 mid-point titer (reciprocal dilution inducing 50% of killing)
- bactericidal activity (mid-point titer) [5]: > 384000 mid-point titer (reciprocal dilution inducing 50% of killing)
- bactericidal activity (mid-point titer) [6]: 386000 mid-point titer (reciprocal dilution inducing 50% of killing)
- bactericidal activity (mid-point titer) [7]: 256000 mid-point titer (reciprocal dilution inducing 50% of killing)
- bactericidal activity (mid-point titer) [8]: 1.88e+06 mid-point titer (reciprocal dilution inducing 50% of killing)
- bactericidal activity (mid-point titer) [9]: > 640000 mid-point titer (reciprocal dilution inducing 50% of killing)
